Results: publication PMC6885550
Where two headings read alike, the source gives them in different places.

What was measured:
Assay in all cases: FRET or BRET
YFP-sarcolipin (SLN) [1] = target: YFP-sarcolipin (SLN) (UniProt O00631)
YFP-sarcolipin (SLN) [2] = target: YFP-sarcolipin (SLN) (UniProt O00631); remark: listed apart in the source
[3] = target: YFP-DWORF (dwarf open reading frame) (UniProt P0DN84)
[4] = target: YFP-DWORF (dwarf open reading frame) (UniProt P0DN84); remark: listed apart in the source

Chain of YFP-sarcolipin (SLN) (from UniProt O00631 1-31) (natural protein) (O00631 whole entry): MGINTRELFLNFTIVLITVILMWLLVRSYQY

YFP-sarcolipin (SLN) (from UniProt O00631 1-31) (natural protein)
stoichiometry N (YFP-sarcolipin (SLN) [1]): > 2
stoichiometry N (YFP-sarcolipin (SLN) [2]): 2

YFP-DWORF (dwarf open reading frame) (from UniProt P0DN84 1-35) (natural protein)
percent of donors in FRET (oligomer subpopulation) [3]: 20%
percent of donors in FRET (oligomer subpopulation) [4]: 23.4%
